Test [1] deals with T1, C3b (human, UniProt P01024 23-667; P01024 749-1663).
T1 construct: In the cofactor assays it was plain 'pure C3b protein'; also called pure C3b protein; biotinylated C3b protein
Nature of the test: BLI (OctetRed96), biotinylated C3b on streptavidin (SAX) sensors, FH in solution; the same table prints KD Error (%) 3.0192, Full R^2 0.9770, '167 µgml' under Data Location, FH ~155kDa. As to the method:
(§1) The affinity of CR1a for C3b protein was measured using OctetRed96 System (ForteBio, Pall Corp., USA). Biotinylated C3b protein was diluted in 0.2% PBST to final concentration of 0.4 μg/mL and loaded onto High Precision Streptavidin (SAX) Biosensors (ForteBio, Pall Corp., USA) for 600 s, previously hydrated with the same buffer for 20 min. C3b-loaded sensors were then washed with 0.2% PBST for 150 s (baseline) and dipped into wells containing CR1a in different concentrations ranging from 30.0 μg/mL to 2.6 μg/mL for 600 s (association) followed by wash with 0.2% PBST for 600 s (dissociation). Association and dissociation profiles were recorded and analysed with ForeBio Data Analysis v9 (ForteBio, Pall Corp., USA). The negative control i.e. 0.2% PBST containing well was used in parallel to subtract binding resulting from nonspecific interactions with the sensors. Experiments were performed using the kinetics mode, at 25° C. and sample plates were pre-agitated for 3 min. The binding profiles were globally fitted to 1:1 (one analyte in solution to one binding site on the surface). […] Binding affinities were also determined for native soluble C3b-binding complement regulators Factor H (FH) and FHL-1 to immobilised C3b.

The target of test [2] is T1, C3b. Briefly: BLI (OctetRed96), immobilised biotinylated C3b, FH in solution. As to the method:
as §1

In test [3] the target is T1, C3b. Briefly: BLI (OctetRed96), biotinylated C3b on streptavidin (SAX) sensors, CR1a in solution; the same table prints KD Error (%) 0.4186, Full R^2 0.8731, '30 µgml' under Data Location. As to the method:
as §1

Test [4] has as its target T1, C3b. Briefly: BLI (OctetRed96), biotinylated C3b on streptavidin (SAX) sensors, FHL-1 in solution; the same table prints KD Error (%) 3.1325, Full R^2 0.9550, '278 µgml' under Data Location, FHL-1 ~50kDa. As to the method:
as §1

The target in test [5] is T1, C3b. Briefly: BLI (OctetRed96), immobilised biotinylated C3b, FHL-1 in solution. The procedure: as §1

The values that follow come from patent publication US20210145933A1 (COMPLEMENT THERAPEUTICS, published 2021).

T1 sequence (P01024 23-667 limits assumed, chain 1 of 2): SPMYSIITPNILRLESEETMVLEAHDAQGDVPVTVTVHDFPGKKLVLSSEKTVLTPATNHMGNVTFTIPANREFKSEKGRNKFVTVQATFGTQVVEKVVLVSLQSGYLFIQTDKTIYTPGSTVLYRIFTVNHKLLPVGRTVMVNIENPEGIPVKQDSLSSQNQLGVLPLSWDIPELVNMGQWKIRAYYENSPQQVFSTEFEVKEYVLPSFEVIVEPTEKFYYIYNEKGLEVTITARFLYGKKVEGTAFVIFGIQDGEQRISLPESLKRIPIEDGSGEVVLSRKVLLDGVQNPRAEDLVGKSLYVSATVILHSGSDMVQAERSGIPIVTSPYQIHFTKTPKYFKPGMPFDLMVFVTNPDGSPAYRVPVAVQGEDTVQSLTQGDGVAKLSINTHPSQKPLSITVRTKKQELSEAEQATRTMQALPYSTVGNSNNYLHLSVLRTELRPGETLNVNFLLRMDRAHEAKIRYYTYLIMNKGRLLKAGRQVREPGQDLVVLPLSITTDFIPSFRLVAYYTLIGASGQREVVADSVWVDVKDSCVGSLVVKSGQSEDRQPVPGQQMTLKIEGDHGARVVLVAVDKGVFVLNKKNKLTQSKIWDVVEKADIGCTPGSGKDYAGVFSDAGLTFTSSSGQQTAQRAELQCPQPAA
T1 sequence (P01024 749-1663 limits assumed, chain 2 of 2): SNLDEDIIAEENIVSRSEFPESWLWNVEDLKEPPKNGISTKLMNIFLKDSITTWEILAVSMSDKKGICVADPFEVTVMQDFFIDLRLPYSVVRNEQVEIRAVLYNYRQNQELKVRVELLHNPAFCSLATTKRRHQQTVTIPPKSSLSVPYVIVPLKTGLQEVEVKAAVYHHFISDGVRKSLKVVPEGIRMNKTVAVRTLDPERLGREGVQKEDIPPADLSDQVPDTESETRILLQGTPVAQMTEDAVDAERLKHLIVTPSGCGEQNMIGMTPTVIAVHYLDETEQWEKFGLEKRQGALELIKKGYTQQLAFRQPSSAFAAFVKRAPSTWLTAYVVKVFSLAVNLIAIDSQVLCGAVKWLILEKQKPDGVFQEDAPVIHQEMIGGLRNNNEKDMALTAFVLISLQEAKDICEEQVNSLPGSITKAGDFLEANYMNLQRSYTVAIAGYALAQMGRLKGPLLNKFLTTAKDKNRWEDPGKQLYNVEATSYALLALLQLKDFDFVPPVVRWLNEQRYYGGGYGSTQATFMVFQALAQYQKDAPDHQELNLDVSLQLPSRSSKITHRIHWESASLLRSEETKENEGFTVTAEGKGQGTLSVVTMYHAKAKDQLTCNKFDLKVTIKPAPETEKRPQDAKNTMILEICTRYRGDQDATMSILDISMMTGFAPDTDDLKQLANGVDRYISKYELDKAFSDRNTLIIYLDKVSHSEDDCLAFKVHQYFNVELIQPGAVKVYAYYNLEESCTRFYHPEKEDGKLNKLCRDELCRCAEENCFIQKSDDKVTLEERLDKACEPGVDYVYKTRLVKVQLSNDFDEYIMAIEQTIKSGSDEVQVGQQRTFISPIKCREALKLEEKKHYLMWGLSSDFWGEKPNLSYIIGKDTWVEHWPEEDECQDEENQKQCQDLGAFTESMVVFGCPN

B1: Complement Factor H (FH) (other)
chain: EDCNELPPRRNTEILTGSWSDQTYPEGTQAIYKCRPGYRSLGNVIMVCRKGEWVALNPLRKCQKRPCGHPGDTPFGTFTLTGGNVFEYGVKAVYTCNEGYQLLGEINYRECDTDGWTNDIPICEVVKCLPVTAPENGKIVSSAMEPDREYHFGQAVRFVCNSGYKIEGDEEMHCSDDGFWSKEKPKCVEISCKSPDVINGSPISQKIIYKENERFQYKCNMGYEYSERGDAVCTESGWRPLPSCEEKSCDNPYIPNGDYSPLRIKHRTGDEITYQCRNGFYPATRGNTAKCTSTGWIPAPRCTLKPCDYPDIKHGGLYHENMRRPYFPVAVGKYYSYYCDEHFETPSGSYWDHIHCTQDGWSPAVPCLRKCYFPYLENGYNQNYGRKFVQGKSIDVACHPGYALPKAQTTVTCMENGWSPTPRCIRVKTCSKSSIDIENGFISESQYTYALKEKAKYQCKLGYVTADGETSGSITCGKDGWSAQPTCIKSCDIPVFMNARTKNDFTWFKLNDTLDYECHDGYESNTGSTTGSIVCGYNGWSDLPICYERECELPKIDVHLVPDRKKDQYKVGEVLKFSCKPGFTIVGPNSVQCYHFGLSPDLPICKEQVQSCGPPPELLNGNVKEKTKEEYGHSEVVEYYCNPRFLMKGPNKIQCVDGEWTTLPVCIVEESTCGDIPELEHGWAQLSSPPYYYGDSVEFNCSESFTMIGHRSITCIHGVWTQLPQCVAIDKLKKCKSSNLIILEEHLKNKKEFDHNSNIRYRCRGKEGWIHTVCINGRWDPEVNCSMAQIQLCPPPPQIPNSHNMTTTLNYRDGEKVSVLCQENYLIQEGEEITCKDGRWQSIPLCVEKIPCSQPPQIEHGTINSSRSSQESYAHGTKLSYTCEGGFRISEENETTCYMGKWSSPPQCEGLPCKSPPEISHGVVAHMSDSYQYGEEVTYKCFEGFGIDGPAIAKCLGEKWSHPPSCIKTDCLSLPSFENAIPMGEKKDVYKAGEQVTYTCATYYKMDGASNVTCINSRWTGRPTCRDTSCVNPPTVQNAYIVSRQMSKYPSGERVRYQCRSPYEMFGDEEVMCLNGNWTEPPQCKDSTGKCGPPPPIDNGDITSFPLSVYAPASSVEYQCQNLYQLEGNKRITCRNGQWSEPPKCLHPCVISREIMENYNIALRWTAKQKLYSRTGESVEFVCKRGYRLSSRSHTLRTTCWDGKLEYPTCAKR
For B1, the figures for the Kd in the test with C3b [1] and with C3b [2] were 583 nM and 580 nM, respectively.

B2: CR1a (CCPs 8-10 of human Complement Receptor 1, secreted from HEK293 cells) (receptor)
chain: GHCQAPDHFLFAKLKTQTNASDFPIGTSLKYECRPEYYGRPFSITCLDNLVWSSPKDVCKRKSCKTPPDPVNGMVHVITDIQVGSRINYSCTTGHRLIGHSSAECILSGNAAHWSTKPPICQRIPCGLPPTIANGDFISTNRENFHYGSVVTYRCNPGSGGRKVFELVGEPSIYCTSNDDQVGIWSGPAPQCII
notes: also called Human Complement Receptor 1 CCPs 8-10; recombinant CR1a protein
In the case of B2, the affinity with C3b [3], expressed as Kd, was 21 nM.

B3: Complement Factor H isoform FHL-1 (other)
chain: EDCNELPPRRNTEILTGSWSDQTYPEGTQAIYKCRPGYRSLGNVIMVCRKGEWVALNPLRKCQKRPCGHPGDTPFGTFTLTGGNVFEYGVKAVYTCNEGYQLLGEINYRECDTDGWTNDIPICEVVKCLPVTAPENGKIVSSAMEPDREYHFGQAVRFVCNSGYKIEGDEEMHCSDDGFWSKEKPKCVEISCKSPDVINGSPISQKIIYKENERFQYKCNMGYEYSERGDAVCTESGWRPLPSCEEKSCDNPYIPNGDYSPLRIKHRTGDEITYQCRNGFYPATRGNTAKCTSTGWIPAPRCTLKPCDYPDIKHGGLYHENMRRPYFPVAVGKYYSYYCDEHFETPSGSYWDHIHCTQDGWSPAVPCLRKCYFPYLENGYNQNYGRKFVQGKSIDVACHPGYALPKAQTTVTCMENGWSPTPRCIRVSFTL
notes: also called factor H-like protein 1
As for B3, the values for the Kd with C3b [4] and in the test with C3b [5] were 1170 nM and 1200 nM, respectively.

The Kd is the concentration at which binding is half-saturated. A low value points to tighter binding.
